Laboratory results: article PMC9772228, “Structure of a RecT/Redβ family recombinase in complex with a duplex intermediate of DNA annealing”
Where a chain is given by its changes, count along the chain named.

T1: LiRecT V98A (Listeria innocua CLIP 11262, UniProt Q92FL9 1-271, V98A)
T1 sequence: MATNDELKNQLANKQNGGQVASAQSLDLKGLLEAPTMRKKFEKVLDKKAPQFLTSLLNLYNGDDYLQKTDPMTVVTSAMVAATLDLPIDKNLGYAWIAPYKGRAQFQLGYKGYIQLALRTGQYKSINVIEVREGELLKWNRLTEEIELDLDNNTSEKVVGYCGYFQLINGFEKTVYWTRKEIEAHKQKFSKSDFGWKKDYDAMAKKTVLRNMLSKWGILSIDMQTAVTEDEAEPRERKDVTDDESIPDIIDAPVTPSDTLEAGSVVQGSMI

T2: LiRecT K191A/F194A (Listeria innocua CLIP 11262, UniProt Q92FL9 1-271, K191A;F194A)
T2 sequence: T1 sequence with A98V, K191A, F194A


Key:
[1] = molecular target: T1, LiRecT V98A; test: EMSA; EMSA: PBS pH 7.4 (or KH2PO4/10 mM MgCl2 pH 6.0), 3.6 or 5 uM protein, 25 uM nt DNA, 37 C 15 min per strand, 0.8% agarose 1x TBE; cryo-EM: 20 mM KH2PO4 (Results: 10 mM), 10 mM MgCl2 pH 6.0, 37 C; native MS: 100 mM ammonium acetate pH 7, 37 C; settings: protein: recombinant, tags: N-terminal 6His vector tag (20 aa) retained, chain copies: 10, single strand
[2] = molecular target: T2, LiRecT K191A/F194A; test: as above; settings: protein: recombinant, tags: N-terminal 6His vector tag (20 aa) retained, chain copies: 10, single strand

Binder | binding result ([1]; label: 5'-Cy3) | binding result ([2]; label: 5'-Cy3) | binding result ([1]; label: 5'-Cy5) | binding result ([2]; label: 5'-Cy5)
GCGGATGGCTTAGAGCAGAATCGCCCTGCATAGCTCGATTTTTGCGGATG (ssDNA) [Cy3-50mer] | binds | binds |  | 
CCATCCGCAAAAATCGAGCTATGCAGGGCGATTCTGCTCTAAGCCATCCG (ssDNA) [Cy5-50mer] |  |  | binds | binds
